Measured values as given in the nanobody polyreactivity screen of Harvey et al. (2022).

experiment: yeast display, Sf9 membrane polyspecificity reagent, FACS + sequencing; frameworks hold sequencing errors
Method in brief: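 Genes from sorted yeast were amplified by colony PCR, read by MiSeq 2 × 250 sequencing and filtered on CDR length. These cells carried a synthetic nanobody library in Saccharomyces cerevisiae BJ5465 and were sorted by FACS into low and high (top ~1%) gates on anti-HA and streptavidin fluorescence. Polyreactivity is labelled according to the gate of origin.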

| Sequence | polyreactivity (PSR sort gate) |
| --- | --- |
| QVQLVESGGGLVQAGGSLRLSCAASGFTFWFNAMGWYRQAPGKEREFVATISYSGASTYYADSVKGRFTISRDNAKNTVYLQMNSLKPEDTAVYYCAAANYDFYAFDSTYRYNYWGQGTQVTVSS | low polyreactivity |
| QVQLVESGGGLVQAGGSLRLSCAASGFTFWFYAMGWYRQAPGKERELVAAISWDGSRTYYADSVKGRFTISRDHAKNTVYLQMNSLKPEDTAVYYCAAESEDSNYNYWGQGTQVTVSS | high polyreactivity |
| QVQLVESGGGLVQAGGSLRLSCAASGFTFWGYGMGWYRQAPGKERELVAAISGSGGSTYYADSVKGRFTISRDNAKNTVYLQMNSLKPEDTAVYYCNKATQFYQWGASPYYPRRDYWGQGTQVTVSS | low polyreactivity |
| QVQLVESGGGLVQAGGSLRLSCAASGFTFWLYAMGCYRQAPGKEREFVAAISTSGGSTYADSVKGRFTISRDNAKNTVYLQMNSLKPEDTAVYYCNAGYLLYYDYHLFYWGQGTQVTVSS | low polyreactivity |
| QVQLVESGGGLVQAGGSLRLSCAASGFTFWLYAMGSYRQAPGKEREFVAAISTSGGYTYADSVKGRFTISRDNAKNTVYLQMNSLKPEDTAVYYCAVDGLPPKDALHLYYYWGQGTQVTVSS | low polyreactivity |
| QVQLVESGGGLVQAGGSLRLSCAASGFTFWNNAMGWYRQAPGKERELVAAISWSGGSTYYADSVKGRFTISRDNAKNTFDLQMNRLKPEDSAVYYCAAGDGPWLPRVHYGGYGYWGQGTQVTVSS | high polyreactivity |
| QVQLVESGGGLVQAGGSLRLSCAASGFTFWPNAMGWYRQAPGKERELVAAINWSGGSTYYADSVKGRFTISRDNAKYTVSLQKNSLKPEDTAVYYCAADYVTNITFDGFNKYDYWGQGTQVTVSS | low polyreactivity |
| QVQLVESGGGLVQAGGSLRLSCAASGFTFWRYAMGRYRQAPGKERELVAGISSGGSTNYADSVKGRFTISRDNAKNTVYLQMNSLKPEDTAVYYCAARGNYFYGIYGYWGQGTQVTVSS | low polyreactivity |
| QVQLVESGGGLVQAGGSLRLSCAASGFTFWTYAMGWYRQAPGKERELVAAIDSGGSTYYADSVKGRFTISRDNAKNTVYLQMNSVKPEDTAVYYCNAGPSVTSGYDYDYWGQGTQVTVSS | low polyreactivity |
| QVQLVESGGGLVQAGGSLRLSCAASGFTFWYNAMGWYRQAPGKERELVAAITSAGSTSYADSVKGRFTISRDNAKNTVYLQMNSLKPEDTAVYYCNADLASSFSRANKYDYWGQGTQVTVSS | low polyreactivity |
| QVQLVESGGGLVQAGGSLRLSCAASGFTFWYYAMGWYRQAPGKEREMVAAISRSGTSTYYADSVKGRFTISRDNAKNTVYLQMNSLKPEDSAVYYCNVLRVKSITYLMDYWGQGTQVTVSS | high polyreactivity |
| QVQLVESGGGLVQAGGSLRLSCAASGFTFYANAMGWYRQAPGKERELVAAISRGVSTTYADSVKGRFTISRDNAKNTVYLQMNRLKPEDTAVYYCAADGNVIAQGYDYWGQGTQVTVSS | low polyreactivity |
| QVQLVESGGGLVQAGGSLRLSCAASGFTFYANAMGWYRQAPGKERELVAAITSSGGSTYYADSVKGRFTISRDNAKNTVYLQMNSLKPEDSAVYYCNSLRLYSIPRLYGYWGQGTQVTVSS | high polyreactivity |
| QVQLVESGGGLVQAGGSLRLSCAASGFTFYAYAMGWYRPAPGKERELVAALTGRGGSTYYADSVKGRFTISRDNAKNTVYLQMNSLKPEDTAVYYCNKVKQSDKFNNFSNDYWGQGTQVTVSS | high polyreactivity |
| QVQLVESGGGLVQAGGSLRLSCAASGFTFYAYAMGWYRQAPGKERELVAVITGGGSTYYADSVKGRFTISRDNAKNTVYLQMNSLKPEDTAVYYCAATYRGWLVGNGVWYWYYYWGQGTQVTVSS | high polyreactivity |
| QVQLVESGGGLVQAGGSLRLSCAASGFTFYDYAMGWYRQAPGKERELVAAISWDGDRTYYADSVNGRFTISRDNAKNTVYLQMNSLKPEDTAVYYCNAEYSSFSDVQKDSDMDYWGQGTQVTVSS | low polyreactivity |
| QVQLVESGGGLVQAGGSLRLSCAASGFTFYFYAMGWYRQAPGKERELVAAISRGGSTTYADSVKGRFTISRDNAKNTVYLQMNSLKPEDTAVYYCAKDRRRWYYTRDYWGQGTQVTVSS | low polyreactivity |
